Experiments:
tPA [1] = molecular target: T1, tPA (Homo sapiens, UniProt P00750); test: tPA ELISA with coated protein therapeutics; type: binding; details: for binding of tPA: ELISA, stored at the recommended temperature of 4° C.
Procedure: Formulated protein therapeutics were obtained from the local hospital pharmacy and were used as supplied by the manufacturers. […] Lyophilized therapeutics were dissolved according to the manufacturers recommendations. GH, zinc-insulin, Cealb and gelatin were stored at −20, 4, room temperature, 37 and 65° C. Other protein therapeutics were only kept at 4° C., and assayed for the presence of cross-β structure at shown time points. Enhancement in fluorescence of ThT and Congo red was measured with all formulated protein therapeutics. For this purpose, proteins were diluted to the indicated concentrations. […] Zinc-insulin was diluted tenfold in the activation assay, GH was diluted to a final concentration of 500 μg ml^−1. Activation of factor XII and prekallikrein by the therapeutics was tested in the chromogenic factor XII assay (see above). […] After coating, plates were blocked with Blocking Reagent (Roche Diagnostics, Almere, The Netherlands).

tPA [2] = molecular target: T1, tPA; test: tPA/plasminogen activation assay; type: biochemical; details: % of standardized positive control; 1:10 diluted samples
Procedure: β2-GPI was reduced and alkylated as follows. Sixhundredforty μl of β2-GPI stock was mixed with 640 μl of 8 M Urea (cooled solution) in 0.1 M Tris pH-8.2. The solution was degassed with N2 gas for approximately 6 minutes. From a 1 M DTT stock 12.8 μl was added to the solution, mixed and incubated for 3 hours at room temperature. A 1 M Iodoacetamide (Sigma; I-6125) was prepared, of which 25.6 μl was added to the β2-GPI reaction mixture. The solution was subsequently dialysed against PBS. […] Signals obtained with alkyl-β2gpi are compared with those obtained with native β2gpi starting material and with positive control acid/heat denatured amyloid-like misfolded γ-globulins.
Exiqon Peptide Immobilizer plates were blocked for 1 hour with PBS, 1% Tween20 and rinsed twice with distilled water. The conversion of the chromogenic substrate S-2251 (Chromogenix, Italy) by plasmin was kinetically measured at 37° C. on a Spectramax340 microplate reader at a wavelength of 405 nm. […] Denatured γ-globulins (100 μg/ml) with amyloid-like structure was used as reference and positive control. Lyophilized γ-globulins (Sigma, Mo., USA) were dissolved in a 1(:)1 volume ratio of 1,1,1,3,3,3-hexafluoro-2-propanol and trifluoro-acetic acid and subsequently dried under air. Dried γ-globulins was dissolved in H2O to a final concentration of 1 mg/ml and kept at room temperature for at least three days and subsequently stored at −20° C.
(§1) Protein therapeutics were obtained from the local hospital pharmacy and analyzed within the expiry limits as stated by the manufacturers.

[3] = Congo red fluorescence enhancement by biopharmaceuticals; type: physicochemical; details: +/− SD; five μL of protein therapeutic
Procedure: Background signals from buffer, buffer with Congo red and protein/peptide solution without Congo red were subtracted from corresponding measurements with protein solution incubated with Congo red. Fluorescence was measured in triplicate on a Hitachi F-4500 fluorescence spectrophotometer (Ltd., Tokyo, Japan).
as §1
Fluorescence of Thioflavin T (ThT; Sigma T-3516, St. Louis, Mo., USA) and Congo red (CR; Aldrich Chemical Company Inc., Milwaukee, Wis., USA) was measured on a Hitachi F-4500 spectrophotometer at an excitation wavelength of 435 nm and emission wavelength of 485 nm for ThT and an excitation wavelength of 550 nm and emission wavelength of 595 nm for Congo red. […] Fluorescence was measured in triplicate. Background fluorescence of both protein in buffer and dye-solution were subtracted from the total fluorescence signal. Five μg/mL fibrillar amyloid-β(1-40) E22Q (Peptide Synthesis Facility of the Dutch Cancer Institute NKI, Amsterdam, The Netherlands) was used as a positive control in all fluorescence assays.

tPA [4] = molecular target: T1, tPA; test: tPA binding assay with immobilized biopharmaceuticals in an ELISA; details: coated 1:10, one-site binding model
Procedure: Plates were washed twice with Tris buffered saline pH 7.2 containing 0.1% Tween20 (TBST) and blocked with PBS containing 1% Tween20 for 1 hour at room temperature. […] Plates were washed five times with TBST and incubated with peroxidase labeled anti-mouse immunoglobulins (RAMPO; DAKOCytomation, Glostrup, Denmark) diluted 1:3000 in PBST for 30 minutes at room temperature. Plates were washed five times with PBS 0.1% Tween20, and stained with 100 μL/well of tetramethyl-benzidine (TMB) substrate (Biosource Europe, Nivelles, Belgium). The reaction was terminated with 50 μL/well of 2 M H2SO4 and substrate conversion was read at 450 nm on a Spectramax340 microplate reader. Curves were fitted with a one-site binding model (GraphPad Prism version 4.02 for Windows, Graphpad Software, Calif., USA) from which Kd and Bmax were determined.
as §1

tPA F-EGF = molecular target: T2, tPA F-EGF (Homo sapiens, UniProt P00750); test: Affinity determination ELISA, tPA F-EGF on coated (mis)folded proteins; type: binding; details: coated protein as labelled, relative to native control
T2 construct: made in house; host or cells: HEK293E
T2 sequence (P00750 36-120 limits assumed): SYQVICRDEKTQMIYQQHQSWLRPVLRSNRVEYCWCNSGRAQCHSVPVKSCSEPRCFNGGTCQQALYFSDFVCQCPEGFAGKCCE
Description: (§2) Synthetic genes of human BiP, human fibronectin finger 4,5 (Fn F4,5) fragment, and human tissue-type plasminogen activator finger EGF (tPA F-EGF) fragment were ordered from Geneart (Regensburg, Germany). These DNA constructs were digested using BamHI and NotI, and ligated into vector pABC674 (ABC-expression facility, Utrecht University, The Netherlands), which contains a carboxy-terminal FLAG-tag—His-tag. HEK293E cells were transiently transfected with these constructs using the polyethylene-imine method, and grown for 5-6 days.
(§3) Denatured proteins and their native controls BSA (Sigma, A7906), glycated BSA, Hb (Sigma, H7605), glycated Hb, ovalbumin (Sigma, A6741), heat-denatured misfolded ovalbumin, human γ-globulins (Sigma, G4386), heat-denatured misfolded γ-globulins, alkyl-γ-globulins, lysozyme (ICN Biochemicals, 100831) and alkyl-lysozyme were coated on ELISA plates (Greiner Microlon high-binding, 655092) in 50 mM NaHCO3-buffer pH 9.6. The plates were blocked using Blocking reagent (Roche 1112589). […] Bound protein is detected by the FLAG-tag using 1:3000 anti-FLAG-HRP (Sigma A-8592) in PBS-T, or by 1:1000 Ni-NTA-HRP (Qiagen 34530) in PBS-T. The HRP reaction Is performed using the TMB substrate (Biosource 4501103 or Tebu Bio 101TMB100-500), stopped using 10% H2SO4 and absorbance was measured at 450 nm.

fibronectin F4,5 = molecular target: T3, fibronectin F4,5 (Homo sapiens, UniProt P02751); test: Affinity determination ELISA, fibronectin F4,5 on coated (mis)folded proteins; type: binding; details: coated protein as labelled
T3 construct: human fibronectin finger 4,5 (Fn F4,5) fragment; made in house; host or cells: HEK293E
Description: as §2, §3

BiP = molecular target: T4, BiP (Homo sapiens, UniProt P11021); test: Affinity determination ELISA, BiP on coated (mis)folded proteins; type: binding; details: coated protein as labelled
T4 construct: made in house; host or cells: HEK293E
Description: as §2, §3

T1 sequence (P00750 36-562): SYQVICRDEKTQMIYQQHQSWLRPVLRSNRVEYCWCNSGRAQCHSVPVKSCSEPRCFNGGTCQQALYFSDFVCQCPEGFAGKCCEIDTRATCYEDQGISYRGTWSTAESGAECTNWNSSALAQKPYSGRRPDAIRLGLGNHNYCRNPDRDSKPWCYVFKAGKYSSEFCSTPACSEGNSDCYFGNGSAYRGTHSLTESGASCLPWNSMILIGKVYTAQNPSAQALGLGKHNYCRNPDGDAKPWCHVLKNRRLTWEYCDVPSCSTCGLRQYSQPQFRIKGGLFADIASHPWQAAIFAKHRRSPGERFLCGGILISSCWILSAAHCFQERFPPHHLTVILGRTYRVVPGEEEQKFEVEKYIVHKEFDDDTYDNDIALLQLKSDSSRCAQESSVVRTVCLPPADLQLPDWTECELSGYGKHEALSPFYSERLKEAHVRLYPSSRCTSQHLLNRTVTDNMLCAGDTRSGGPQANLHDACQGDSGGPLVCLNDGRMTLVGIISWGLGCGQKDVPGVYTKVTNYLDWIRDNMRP
T4 sequence (P11021 19-654): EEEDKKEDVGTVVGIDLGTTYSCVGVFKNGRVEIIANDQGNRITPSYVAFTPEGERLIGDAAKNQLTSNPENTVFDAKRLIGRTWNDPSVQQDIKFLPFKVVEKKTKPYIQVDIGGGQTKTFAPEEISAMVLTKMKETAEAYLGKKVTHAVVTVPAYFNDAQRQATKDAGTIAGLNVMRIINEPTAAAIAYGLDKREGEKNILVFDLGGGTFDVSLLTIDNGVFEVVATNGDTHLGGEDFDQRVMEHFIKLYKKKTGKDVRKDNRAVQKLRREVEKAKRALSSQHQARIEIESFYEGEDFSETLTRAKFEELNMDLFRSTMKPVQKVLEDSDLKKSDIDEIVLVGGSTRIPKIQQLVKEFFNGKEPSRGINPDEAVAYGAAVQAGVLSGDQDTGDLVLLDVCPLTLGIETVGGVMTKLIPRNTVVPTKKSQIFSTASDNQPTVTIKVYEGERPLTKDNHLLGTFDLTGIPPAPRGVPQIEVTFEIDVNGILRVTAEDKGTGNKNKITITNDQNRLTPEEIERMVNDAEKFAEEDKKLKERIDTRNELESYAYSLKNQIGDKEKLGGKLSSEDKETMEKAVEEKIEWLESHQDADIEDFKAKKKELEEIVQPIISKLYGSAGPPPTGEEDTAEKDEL
T3 sequence (P02751 182-276 limits assumed): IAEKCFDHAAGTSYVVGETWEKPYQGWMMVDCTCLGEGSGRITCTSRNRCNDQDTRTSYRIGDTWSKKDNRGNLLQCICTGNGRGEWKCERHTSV

Substance	binding of tPA (tPA [1])	tPA activation Max. Activation (tPA [2])	Fluorescence CR [3]	tPA Binding Bmax (tPA [4])	Kd (tPA [1]; tPA ELISA, immobilized protein, stored at 4° C., read-out: KD of tPA binding)	Kd (tPA [4])	binding of tPA F-EGF (tPA F-EGF)	affinity for fibronectin F4,5 (fibronectin F4,5)	binding of BiP (BiP)
Abciximab: abciximab, an inhibitor of blood platelet aggregation (ReoPro, Centocor)	binding of tPA was established	0%	25 +/− 1 a.u.	0.5329 OD450 nm	–	–	–	–	–
Somatropin: human growth hormone (Genotropin, Pharmacia)	binding of tPA was established	113.95%	429 +/− 2 a.u.	0.9369 OD450 nm	72 nM	9.05 nM	–	–	–
albumin-AGE: advanced glycation end-product modified bovine serum albumin	–	–	–	–	–	–	High binding affinities	High affinities	high affinity

From patent publication US20080220446A1, “Method for Detecting and/or Removing Protein and/or Peptide Comprising a Cross-Beta Structure From an Aqueous Solution Comprising a Protein” (priority 2005, published 2008)
